B1: H2-Kb / Ed5 (parent complex)
chain 1: GDSVTQTEGPVTVSESESLIINCTYSATSIAYPNLFWYVRYPGEGLQLLLKVITAGQKGSSRGFEATYNKETTSFHLQKASVQESDSAVYYCALGSYNQGKLIFGQGTKLSIKP
chain 2: DTTVKQNPRYKLARVGKPVNLICSQTMNHDTMYWYQKKPNQAPKLLLFYYDKILNREADTFEKFQSSRPNNSFCSLYIGSAGLEYSAMYLCASSRRLGASQNTLYFGAGTRLSVL
chain 3: not shown
chain 4: IQKTPQIQVYSRHPPENGKPNILNCYVTQFHPPHIEIQMLKNGKKIPKVEMSDMSFSKDWSFYILAHTEFTPTETDTYACRVKHDSMAEPKTVYWDRDM
chain 5: SIINFEKL

Variants of: B1
Experiment: % of reporter cells activated (NFAT-GFP), raw; also: test concentration or dose not given here

Question: How did the ratio to parent turn out when chain 5 I3W was run?
Answer: Its ratio to parent is 0.372.

Question: With chain 5 I3L as the variant, how does the ratio to parent read?
Answer: The ratio to parent was 0.897.

Question: How did the ratio to parent turn out when chain 5 I3M was run?
Answer: Its ratio to parent is 0.723.

Question: With chain 5 I3T as the variant, how does the ratio to parent read?
Answer: The ratio to parent was 0.512.

Question: Which ratio to parent does the source give for chain 5 I3Y here?
Answer: Its ratio to parent is 0.0245.

Question: For chain 5 I3V, which ratio to parent is on record?
Answer: The ratio to parent was 0.661.

Question: How did the ratio to parent turn out when chain 5 I3S was run?
Answer: Its ratio to parent is 0.329.

Question: How did the ratio to parent turn out when chain 5 I3P was run?
Answer: Its ratio to parent is 0.36.

Question: For chain 5 I3D, which ratio to parent is on record?
Answer: Its ratio to parent is 0.436.

Question: Which ratio to parent does the source give for chain 5 I3F here?
Answer: The ratio to parent was 0.0887.

Question: Which ratio to parent does the source give for chain 5 I3E here?
Answer: Its ratio to parent is 0.287.

Question: chain 5 I3R was tested. Which ratio to parent did it give?
Answer: Its ratio to parent is 0.064.

Question: Which ratio to parent does the source give for chain 5 I3N here?
Answer: The ratio to parent was 0.164.

Question: How did the ratio to parent turn out when chain 5 I3C was run?
Answer: Its ratio to parent is 0.673.

Question: Which ratio to parent does the source give for chain 5 I3K here?
Answer: The ratio to parent was 0.682.

Question: How did the ratio to parent turn out when chain 5 E6L was run?
Answer: The ratio to parent was 0.165.

Question: For chain 5 E6W, which ratio to parent is on record?
Answer: The ratio to parent was 0.54.

Question: How did the ratio to parent turn out when chain 5 E6F was run?
Answer: Its ratio to parent is 0.506.

Question: For chain 5 E6H, which ratio to parent is on record?
Answer: Its ratio to parent is 0.554.

Question: How did the ratio to parent turn out when chain 5 E6G was run?
Answer: Its ratio to parent is 0.939.

Question: chain 5 E6T was tested. Which ratio to parent did it give?
Answer: Its ratio to parent is 0.622.

Question: chain 5 E6N was tested. Which ratio to parent did it give?
Answer: Its ratio to parent is 0.498.

Question: For chain 5 E6R, which ratio to parent is on record?
Answer: Its ratio to parent is 0.0689.

Question: Which ratio to parent does the source give for chain 5 E6D here?
Answer: Its ratio to parent is 0.941.

Question: For chain 5 E6Y, which ratio to parent is on record?
Answer: The ratio to parent was 0.633.

Question: With chain 5 E6M as the variant, how does the ratio to parent read?
Answer: Its ratio to parent is 0.443.

Question: With chain 5 F5T as the variant, how does the ratio to parent read?
Answer: The ratio to parent was 0.887.

Question: Which ratio to parent does the source give for chain 5 F5G here?
Answer: Its ratio to parent is 0.698.

Question: With chain 5 F5Q as the variant, how does the ratio to parent read?
Answer: The ratio to parent was 0.951.

Question: Which ratio to parent does the source give for chain 5 F5C here?
Answer: The ratio to parent was 1.04.

Question: With chain 5 F5N as the variant, how does the ratio to parent read?
Answer: Its ratio to parent is 0.855.

Question: chain 5 F5L was tested. Which ratio to parent did it give?
Answer: The ratio to parent was 0.996.

Question: How did the ratio to parent turn out when chain 5 F5P was run?
Answer: Its ratio to parent is 0.98.

Question: With chain 5 L8Y as the variant, how does the ratio to parent read?
Answer: The ratio to parent was 0.848.

Question: Which ratio to parent does the source give for chain 5 L8P here?
Answer: The ratio to parent was 0.826.

Question: chain 5 L8D was tested. Which ratio to parent did it give?
Answer: The ratio to parent was 0.747.

Question: How did the ratio to parent turn out when chain 5 L8I was run?
Answer: The ratio to parent was 0.758.

Question: Which ratio to parent does the source give for chain 5 L8C here?
Answer: Its ratio to parent is 0.929.

Question: Which ratio to parent does the source give for chain 5 L8A here?
Answer: The ratio to parent was 0.711.

Question: Which ratio to parent does the source give for chain 5 L8T here?
Answer: The ratio to parent was 0.671.

Question: For chain 5 L8N, which ratio to parent is on record?
Answer: Its ratio to parent is 0.753.

Question: With chain 5 L8V as the variant, how does the ratio to parent read?
Answer: The ratio to parent was 0.546.

Question: Which ratio to parent does the source give for chain 5 N4H here?
Answer: Its ratio to parent is 0.11.

Question: chain 5 N4Q was tested. Which ratio to parent did it give?
Answer: Its ratio to parent is 0.00458.

Question: With chain 5 N4W as the variant, how does the ratio to parent read?
Answer: Its ratio to parent is 0.0358.

Question: How did the ratio to parent turn out when chain 5 N4M was run?
Answer: The ratio to parent was 0.00113.

Question: With chain 5 N4F as the variant, how does the ratio to parent read?
Answer: Its ratio to parent is 0.0112.

Question: With chain 5 I2C as the variant, how does the ratio to parent read?
Answer: Its ratio to parent is 0.958.

Question: With chain 5 I2Y as the variant, how does the ratio to parent read?
Answer: The ratio to parent was 0.642.

Question: chain 5 I2G was tested. Which ratio to parent did it give?
Answer: Its ratio to parent is 0.875.

Question: chain 5 I2S was tested. Which ratio to parent did it give?
Answer: Its ratio to parent is 0.989.

Question: For chain 5 I2E, which ratio to parent is on record?
Answer: The ratio to parent was 0.852.

Question: Which ratio to parent does the source give for chain 5 I2N here?
Answer: The ratio to parent was 0.749.

Question: Which ratio to parent does the source give for chain 5 I2A here?
Answer: Its ratio to parent is 1.01.

Question: Which ratio to parent does the source give for chain 5 I2P here?
Answer: The ratio to parent was 1.04.

Question: chain 5 I2L was tested. Which ratio to parent did it give?
Answer: Its ratio to parent is 0.974.

Question: With chain 5 I2K as the variant, how does the ratio to parent read?
Answer: Its ratio to parent is 0.798.

Question: Which ratio to parent does the source give for chain 5 I2Q here?
Answer: Its ratio to parent is 0.711.

Question: chain 5 S1N was tested. Which ratio to parent did it give?
Answer: The ratio to parent was 0.305.

Question: Which ratio to parent does the source give for chain 5 S1V here?
Answer: Its ratio to parent is 0.126.

Question: How did the ratio to parent turn out when chain 5 S1I was run?
Answer: The ratio to parent was 0.00825.

Question: Which ratio to parent does the source give for chain 5 S1G here?
Answer: Its ratio to parent is 0.491.

Question: How did the ratio to parent turn out when chain 5 S1Y was run?
Answer: Its ratio to parent is 0.689.

Question: How did the ratio to parent turn out when chain 5 S1K was run?
Answer: Its ratio to parent is 0.685.

Question: With chain 5 S1F as the variant, how does the ratio to parent read?
Answer: The ratio to parent was 0.0691.

Question: Which ratio to parent does the source give for chain 5 S1H here?
Answer: Its ratio to parent is 0.559.

Question: How did the ratio to parent turn out when chain 5 K7T was run?
Answer: The ratio to parent was 0.602.

Question: For chain 5 K7G, which ratio to parent is on record?
Answer: Its ratio to parent is 0.658.

Question: How did the ratio to parent turn out when chain 5 K7L was run?
Answer: The ratio to parent was 0.728.

Question: Which ratio to parent does the source give for chain 5 K7C here?
Answer: The ratio to parent was 0.686.

Question: With chain 5 K7I as the variant, how does the ratio to parent read?
Answer: The ratio to parent was 0.65.

Question: How did the ratio to parent turn out when chain 5 K7P was run?
Answer: Its ratio to parent is 0.728.

Question: How did the ratio to parent turn out when chain 5 K7R was run?
Answer: The ratio to parent was 0.853.

Question: How did the ratio to parent turn out when chain 5 K7V was run?
Answer: The ratio to parent was 0.62.

Question: chain 5 K7S was tested. Which ratio to parent did it give?
Answer: The ratio to parent was 0.605.

Source: paper PMC11480844 (2024)
